Results published in paper PMC4211926 (Journal of molecular biology, 2013).
Like-named read-outs stand apart in the source and are kept apart here. Values belong to the binder of their own block, whether it stands above or below them.

Key:
[1] = molecular target: T1, His-tagged SIRT1 catalytic domain (His-tagged SIRT1^CAT) (human, UniProt Q96EB6 234-510); assay: pull-down
T1 sequence (looked up): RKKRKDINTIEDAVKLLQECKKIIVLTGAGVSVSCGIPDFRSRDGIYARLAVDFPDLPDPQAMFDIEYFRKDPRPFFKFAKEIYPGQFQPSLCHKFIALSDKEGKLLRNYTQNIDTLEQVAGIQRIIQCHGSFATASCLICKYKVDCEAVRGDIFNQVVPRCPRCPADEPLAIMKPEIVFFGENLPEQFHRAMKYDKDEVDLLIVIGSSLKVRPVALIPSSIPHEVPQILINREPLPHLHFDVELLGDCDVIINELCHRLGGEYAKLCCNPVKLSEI

[2] = molecular target: T2, SIRT1 catalytic domain (SIRT1^CAT), residues 234-510 (human, UniProt Q96EB6 234-510); assay: SEC
T2 sequence (looked up): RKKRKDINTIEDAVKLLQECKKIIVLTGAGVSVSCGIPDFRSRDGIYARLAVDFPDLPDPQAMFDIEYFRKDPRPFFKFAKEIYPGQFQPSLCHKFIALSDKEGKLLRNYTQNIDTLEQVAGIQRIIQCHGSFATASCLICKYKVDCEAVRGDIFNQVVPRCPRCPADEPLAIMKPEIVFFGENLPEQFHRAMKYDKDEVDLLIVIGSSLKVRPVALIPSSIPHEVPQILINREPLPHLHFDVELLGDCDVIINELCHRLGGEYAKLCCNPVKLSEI

[3] = molecular target: T2, SIRT1 catalytic domain (SIRT1^CAT), …; assay: SEC; remark: listed apart in the source
[4] = molecular target: T2, SIRT1 catalytic domain (SIRT1^CAT), …; assay: SEC; remark: listed apart in the source
SIRT1^CAT S265A = molecular target: T3, SIRT1^CAT S265A (human, UniProt Q96EB6 234-510, S265A); assay: SEC
T3 sequence (looked up): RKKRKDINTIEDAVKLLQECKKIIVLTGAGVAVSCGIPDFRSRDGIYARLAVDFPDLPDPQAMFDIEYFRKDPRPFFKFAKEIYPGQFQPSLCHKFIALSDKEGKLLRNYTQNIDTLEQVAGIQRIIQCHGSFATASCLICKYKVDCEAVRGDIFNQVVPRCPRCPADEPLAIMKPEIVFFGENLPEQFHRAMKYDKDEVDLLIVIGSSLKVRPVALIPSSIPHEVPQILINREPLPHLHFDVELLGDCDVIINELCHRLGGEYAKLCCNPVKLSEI

SIRT1^CAT Q345A = molecular target: T4, SIRT1^CAT Q345A (human, UniProt Q96EB6 234-510, Q345A); assay: SEC
T4 sequence (looked up): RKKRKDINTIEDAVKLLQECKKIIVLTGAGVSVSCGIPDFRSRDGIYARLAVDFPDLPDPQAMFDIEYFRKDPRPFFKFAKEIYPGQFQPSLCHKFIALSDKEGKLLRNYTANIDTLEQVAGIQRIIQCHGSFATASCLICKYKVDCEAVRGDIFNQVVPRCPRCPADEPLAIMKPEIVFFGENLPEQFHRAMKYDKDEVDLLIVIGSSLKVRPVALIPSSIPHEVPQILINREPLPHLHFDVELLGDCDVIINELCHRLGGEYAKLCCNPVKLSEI

SIRT1^CAT R276A = molecular target: T5, SIRT1^CAT R276A (human, UniProt Q96EB6 234-510, R276A); assay: SEC
T5 sequence (looked up): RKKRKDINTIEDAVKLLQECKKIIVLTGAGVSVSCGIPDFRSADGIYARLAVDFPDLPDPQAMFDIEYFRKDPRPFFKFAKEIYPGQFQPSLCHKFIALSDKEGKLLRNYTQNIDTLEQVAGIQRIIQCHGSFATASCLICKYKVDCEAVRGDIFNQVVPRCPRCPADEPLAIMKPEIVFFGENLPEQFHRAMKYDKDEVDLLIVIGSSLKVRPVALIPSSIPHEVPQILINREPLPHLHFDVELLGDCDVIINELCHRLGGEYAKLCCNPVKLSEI

SIRT1^CAT H363A = molecular target: T6, SIRT1^CAT H363A (human, UniProt Q96EB6 234-510, H363A); assay: SEC
T6 sequence (looked up): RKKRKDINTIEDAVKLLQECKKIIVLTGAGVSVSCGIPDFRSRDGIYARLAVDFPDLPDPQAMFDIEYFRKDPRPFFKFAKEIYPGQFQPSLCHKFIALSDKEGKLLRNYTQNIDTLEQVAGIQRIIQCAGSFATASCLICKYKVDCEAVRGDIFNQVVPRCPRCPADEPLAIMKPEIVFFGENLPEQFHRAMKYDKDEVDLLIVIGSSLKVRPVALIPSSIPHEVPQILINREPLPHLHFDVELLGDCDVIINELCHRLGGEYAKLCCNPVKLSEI

SIRT1^CAT D481A = molecular target: T7, SIRT1^CAT D481A (human, UniProt Q96EB6 234-510, D481A); assay: SEC
T7 sequence (looked up): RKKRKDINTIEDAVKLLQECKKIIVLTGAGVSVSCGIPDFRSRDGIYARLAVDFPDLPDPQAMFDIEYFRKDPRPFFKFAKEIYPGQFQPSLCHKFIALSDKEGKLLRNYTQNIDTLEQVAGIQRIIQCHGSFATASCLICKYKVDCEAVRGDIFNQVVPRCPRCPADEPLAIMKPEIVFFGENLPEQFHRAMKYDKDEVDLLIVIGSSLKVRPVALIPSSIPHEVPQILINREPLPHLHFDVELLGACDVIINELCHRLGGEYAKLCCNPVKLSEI

SIRT1^CAT I347A = molecular target: T8, SIRT1^CAT I347A (human, UniProt Q96EB6 234-510, I347A); assay: SEC
T8 sequence (looked up): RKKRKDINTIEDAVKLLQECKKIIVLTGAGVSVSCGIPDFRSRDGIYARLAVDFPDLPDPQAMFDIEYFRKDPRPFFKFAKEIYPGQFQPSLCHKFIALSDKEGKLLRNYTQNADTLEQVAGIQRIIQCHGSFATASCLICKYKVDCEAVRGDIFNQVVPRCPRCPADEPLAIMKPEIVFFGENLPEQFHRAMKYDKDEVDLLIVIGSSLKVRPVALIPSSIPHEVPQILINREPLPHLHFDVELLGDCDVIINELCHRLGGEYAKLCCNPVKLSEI

SIRT1^CAT F414A = molecular target: T9, SIRT1^CAT F414A (human, UniProt Q96EB6 234-510, F414A); assay: SEC
T9 sequence (looked up): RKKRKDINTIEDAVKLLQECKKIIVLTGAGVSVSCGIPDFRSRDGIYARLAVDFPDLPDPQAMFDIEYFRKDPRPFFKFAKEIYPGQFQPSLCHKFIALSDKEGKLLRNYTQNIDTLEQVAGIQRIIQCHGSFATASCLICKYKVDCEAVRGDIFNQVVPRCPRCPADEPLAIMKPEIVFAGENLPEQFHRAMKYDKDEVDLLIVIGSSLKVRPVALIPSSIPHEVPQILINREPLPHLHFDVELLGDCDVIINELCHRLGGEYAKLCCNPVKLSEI

SIRT1^CAT R466A = molecular target: T10, SIRT1^CAT R466A (human, UniProt Q96EB6 234-510, R466A); assay: SEC
T10 sequence (looked up): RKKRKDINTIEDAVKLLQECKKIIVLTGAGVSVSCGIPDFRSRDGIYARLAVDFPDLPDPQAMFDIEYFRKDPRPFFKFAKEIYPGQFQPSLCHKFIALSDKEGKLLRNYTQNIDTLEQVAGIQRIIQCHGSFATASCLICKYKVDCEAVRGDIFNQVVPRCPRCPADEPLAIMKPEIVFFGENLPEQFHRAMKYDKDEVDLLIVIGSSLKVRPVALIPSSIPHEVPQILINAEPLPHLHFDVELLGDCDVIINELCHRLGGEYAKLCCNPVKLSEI

binding result [1]: binds
B1: GST-tagged C-terminal regulatory segment of SIRT1 (GST-CTR) (domain or fragment, human, UniProt Q96EB6 641-665, looked up)
chain: QYLFLPPNRYIFHGAEVYSDSEDDV

binding result [1]: binds | binding result [2]: binds
B2: SUMO-tagged C-terminal regulatory segment of SIRT1 (SUMO-CTR), residues 641-665 (domain or fragment, human, UniProt Q96EB6 641-665, looked up)
chain: QYLFLPPNRYIFHGAEVYSDSEDDV

binding result [3]: binds
B3: CTR E656A (domain or fragment, human, UniProt Q96EB6 641-665, looked up)
chain: QYLFLPPNRYIFHGAAVYSDSEDDV

binding result [4]: binds | binding result (SIRT1^CAT S265A): binds | binding result (SIRT1^CAT Q345A): binds | binding result (SIRT1^CAT R276A): binds | binding result (SIRT1^CAT H363A): binds | binding result (SIRT1^CAT D481A): binds | binding result (SIRT1^CAT I347A): binds | binding result (SIRT1^CAT F414A): binds | binding result (SIRT1^CAT R466A): binds
B4: C-terminal regulatory segment of SIRT1 (CTR), residues 641-665 (domain or fragment, human, UniProt Q96EB6 641-665, looked up)
chain: QYLFLPPNRYIFHGAEVYSDSEDDV
